Experimental data: IntAct's records for PubMed 24671035

B1: FUN14 domain-containing protein 1 (Homo sapiens), Q8IVP5 (parent)
chain: MATRNPPPQDYESDDDSYEVLDLTEYARRHQWWNRVFGHSSGPMVEKYSVATQIVMGGVTGWCAGFLFQKVGKLAATAVGGGFLLLQIASHSGYVQIDWKRVEKDVNKAKRQIKKRANKAAPEINNLIEEATEFIKQNIVISSGFVGGFLLGLAS
B2: FUN14 domain-containing protein 1 (Homo sapiens), Q8IVP5 (parent)
chain: B1 chain
partner: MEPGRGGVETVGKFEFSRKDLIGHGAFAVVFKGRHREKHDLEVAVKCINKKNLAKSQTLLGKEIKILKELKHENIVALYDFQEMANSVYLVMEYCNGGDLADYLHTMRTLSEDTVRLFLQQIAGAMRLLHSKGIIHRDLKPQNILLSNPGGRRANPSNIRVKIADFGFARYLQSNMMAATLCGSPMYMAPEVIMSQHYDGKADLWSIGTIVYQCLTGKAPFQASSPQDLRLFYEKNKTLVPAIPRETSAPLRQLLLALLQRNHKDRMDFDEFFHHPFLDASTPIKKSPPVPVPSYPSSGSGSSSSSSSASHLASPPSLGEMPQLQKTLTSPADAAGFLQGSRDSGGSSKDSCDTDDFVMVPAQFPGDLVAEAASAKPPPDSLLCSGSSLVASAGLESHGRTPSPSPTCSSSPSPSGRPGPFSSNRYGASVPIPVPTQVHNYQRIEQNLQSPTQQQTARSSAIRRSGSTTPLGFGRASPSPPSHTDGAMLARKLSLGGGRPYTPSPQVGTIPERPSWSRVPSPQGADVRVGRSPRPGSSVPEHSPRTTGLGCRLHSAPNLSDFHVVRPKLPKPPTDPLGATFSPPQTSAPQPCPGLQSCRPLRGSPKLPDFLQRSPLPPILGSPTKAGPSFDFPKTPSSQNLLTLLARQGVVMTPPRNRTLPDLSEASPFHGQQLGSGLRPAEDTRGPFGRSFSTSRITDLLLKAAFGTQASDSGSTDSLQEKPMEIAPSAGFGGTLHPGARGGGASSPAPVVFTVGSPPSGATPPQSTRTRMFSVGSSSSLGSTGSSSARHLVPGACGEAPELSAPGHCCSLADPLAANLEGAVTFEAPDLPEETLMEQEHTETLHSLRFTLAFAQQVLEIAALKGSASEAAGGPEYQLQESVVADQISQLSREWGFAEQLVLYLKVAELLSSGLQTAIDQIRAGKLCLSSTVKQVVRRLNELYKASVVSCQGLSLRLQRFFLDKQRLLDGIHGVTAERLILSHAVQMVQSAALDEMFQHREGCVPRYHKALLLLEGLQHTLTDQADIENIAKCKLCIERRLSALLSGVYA

Variants of: B1
Details: with mlp3b_human MAP1LC3B

effect of a mutation on the interaction	Variant
increasing interaction	MATRNPPPQDYESDDDDYEVLDLTEYARRHQWWNRVFGHSSGPMVEKYSVATQIVMGGVTGWCAGFLFQKVGKLAATAVGGGFLLLQIASHSGYVQIDWKRVEKDVNKAKRQIKKRANKAAPEINNLIEEATEFIKQNIVISSGFVGGFLLGLAS

Variants of: B1
Details: with mlp3b_human MAP1LC3B
Remark: another data set of the same source

effect of a mutation on the interaction	Variant
decreasing interaction	MATRNPPPQDYESDDDAYEVLDLTEYARRHQWWNRVFGHSSGPMVEKYSVATQIVMGGVTGWCAGFLFQKVGKLAATAVGGGFLLLQIASHSGYVQIDWKRVEKDVNKAKRQIKKRANKAAPEINNLIEEATEFIKQNIVISSGFVGGFLLGLAS

Variants of: B2
Details: with ulk1_mouse Ulk1, O70405

effect of a mutation on the interaction	Variant
disrupting interaction	MATRNPPPQDYESDDDSYEVLDLTEYARRHQWWNRVFGHSSGPMVEKYSVATQIVMGGVTGWCAGFLFQKVGKLAATAVGGGFLLLQIASHSGYVQIDWKRVEKDVNKAKRQIKKRAAKAAPEINNLIEEATEFIKQNIVISSGFVGGFLLGLAS
